The record followed here is patent publication US10472652B2, “Chemical engineering processes and apparatus for the synthesis of compounds” (TEEWINOT T[…], priority 2013, dated 2019).

Common to all, as to assay type: biochemical
Assay [1] deals with T1, THCA synthase (Cannabis sativa, UniProt Q8GTB6).
T1 construct: His-tag (C); made in house; host or cells: Pichia pastoris (PichiaPink, pPink-HC vector), secreted into the medium; cell-free T3 supernatant used
T1 sequence (Q8GTB6 29-545): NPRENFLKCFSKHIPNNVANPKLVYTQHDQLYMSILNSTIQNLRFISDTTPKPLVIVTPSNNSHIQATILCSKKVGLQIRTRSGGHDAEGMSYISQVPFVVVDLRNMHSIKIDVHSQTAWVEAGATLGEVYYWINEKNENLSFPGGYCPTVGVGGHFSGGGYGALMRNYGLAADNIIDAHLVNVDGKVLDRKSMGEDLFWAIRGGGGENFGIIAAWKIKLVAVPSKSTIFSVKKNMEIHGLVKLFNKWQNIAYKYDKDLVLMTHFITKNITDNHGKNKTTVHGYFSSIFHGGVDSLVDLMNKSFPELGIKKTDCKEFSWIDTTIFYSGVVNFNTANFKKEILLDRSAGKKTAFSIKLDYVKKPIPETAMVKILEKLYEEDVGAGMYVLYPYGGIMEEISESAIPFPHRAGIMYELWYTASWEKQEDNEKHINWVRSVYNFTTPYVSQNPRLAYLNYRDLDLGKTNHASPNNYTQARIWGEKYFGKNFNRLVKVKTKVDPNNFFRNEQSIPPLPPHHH
Briefly: effect of concentration of non-aqueous solvent (DMSO) on THCA synthase catalytic rate and THCA:CBCA product ratio. As to the method: Accordingly, the effects of temperature, pH, solvent, ionic strength and incubation times on the distribution ratio of THCA to CBCA products were studied. In one embodiment, the effect of solvent on product distribution ratio was evaluated. Cannabinoids are lipohilic in nature and are poorly solubilized in aqueous solvents. The poor solubility of cannabinoids in aqueous solvent has prevented the development of ex-vivo enzyme catalyzed methodologies for the synthesis of cannabinoids and cannabinoid analogs.
The catalytic rate […] slightly as concentration of the non-aqueous solvent is increased. Thus, 20% DMSO gave the highest catalytic rate, approximately 2.5-fold faster than catalysis in buffer alone. Table 1 illustrates the effect of concentration of non-aqueous solvent on the rate of catalytic activity.
As further illustrated in this table, the concentration of non-aqueous solvent can alter the ratio of THCA to CBCA produced as product. Thus, greater levels of THCA are obtained when the concentration of DMSO in buffer is less that 20%, with a THCA:CBCA distribution ratio of 10:1 observed when 10% DMSO is used as the solvent.

Assay [2] deals with T1, THCA synthase. Kind of assay: pH study: ratio of THCA to CBCA produced when THCA synthase is contacted with CBGA. As to the method: Table 3 illustrates the results of a pH study that was aimed at identifying the effect of pH on product ratio, namely, the ratio of THCA to CBCA compounds produced when THCA synthase is contacted with CBGA as substrate. The pH of the reaction mixture in this study ranged from a pH of 4.0 to 8.0.
In fact, THCA is the major product when catalysis is carried out at a pH of 4.0. Increasing the pH of the reaction mixture altered the product distribution ratio with approximately 30% CBCA being produced as product at a pH of 5.0 and around […] CBCA being produced as product at a pH value of 6.0. A further increase in pH of the reaction mixture, such as an increase of the pH of the reaction mixture to a pH of 7.0 gave CBCA exclusively as the product of THCA synthase catalyzed conversion of CBGA. Any further increases in pH, moreover, reduced or eliminated catalytic activity of THCA synthase, with no product observed for a reaction mixture at a pH of 8.0.

In assay [3] the target is T1, THCA synthase. Kind of assay: effect of detergent SDS on THCA synthase conversion of CBGA. The settings on record: SDS added to 100 mM citrate buffer containing cyclodextrin. As to the method:
In contrast, addition of SDS to 100 mM citrate buffer containing cyclodextrin destroyed THCA synthases ability to catalyze reaction. Only 8% of the substrate was converted to product under these reaction conditions with the formation of THCA being favored as product under these reaction conditions.

B1: THCA synthase: recombinant His-tagged tetrahydrocannabinolic acid synthase secreted by transformed Pichia pastoris yeast cells (protein, UniProt Q8GTB6 29-545, looked up)
Tetrahydrocannabinolic acid …: T1 sequence (Q8GTB6 29-545)
modifications: His tag
notes: recombinant His-tagged tetrahydrocannabinolic acid synthase secreted by transformed Pichia pastoris yeast cells
As to B1, the “FASTER (catalytic rate relative to buffer alone)” value is given as 1X with THCA synthase [1] (DMSO 0%), 1.2X with THCA synthase [1] (DMSO 10%) and 0.3X with THCA synthase [1] (DMSO 30%). Besides, the “CBCA (share of product)” value with THCA synthase [2] (pH 4, substrate CBGA) is given as “Trace”; with THCA synthase [2] (pH 7, substrate CBGA) it was 100%; with THCA synthase [2] (pH 8, substrate CBGA), 0%. Also, the “THCA (share of product)” value with THCA synthase [2] (pH 4, substrate CBGA) is 100%; with THCA synthase [2] (pH 5, substrate CBGA), 70%; in the assay with THCA synthase [2] (pH 6, substrate CBGA), 85%; with THCA synthase [2] (pH 7, substrate CBGA), 0%; in the assay with THCA synthase [2] (pH 8, substrate CBGA), 0%. Moreover, in the assay with THCA synthase [3], the “substrate converted to product” value is given as 8%.
